Assay results published in PMC9482650, “Quantitative fragmentomics allow affinity mapping of interactomes” (Nature Communications, 2022).

T1: PDZD7_3, Q9H5P4
T1 sequence (Q9H5P4 857-944, limits assumed, looked up): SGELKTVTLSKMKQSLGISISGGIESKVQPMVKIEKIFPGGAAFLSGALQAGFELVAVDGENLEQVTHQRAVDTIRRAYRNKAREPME

T2: LIN7C, Q9NUP9
T2 sequence (Q9NUP9 88-185, limits assumed, looked up): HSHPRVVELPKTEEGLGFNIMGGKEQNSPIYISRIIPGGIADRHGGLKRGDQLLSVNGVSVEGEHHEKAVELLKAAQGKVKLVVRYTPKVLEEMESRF

T3: HTRA3, P83110
T3 sequence (P83110 354-453, limits assumed, looked up): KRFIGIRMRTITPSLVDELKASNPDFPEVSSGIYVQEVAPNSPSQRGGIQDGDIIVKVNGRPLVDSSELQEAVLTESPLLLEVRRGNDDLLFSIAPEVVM

T4: MPP6, Q9NZW5
T4 sequence (Q9NZW5 125-219, limits assumed, looked up): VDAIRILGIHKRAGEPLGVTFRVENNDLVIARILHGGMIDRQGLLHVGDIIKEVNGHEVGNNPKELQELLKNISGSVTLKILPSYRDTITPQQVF

T5: MPP7, Q5T2T1
T5 sequence (Q5T2T1 134-230, limits assumed, looked up): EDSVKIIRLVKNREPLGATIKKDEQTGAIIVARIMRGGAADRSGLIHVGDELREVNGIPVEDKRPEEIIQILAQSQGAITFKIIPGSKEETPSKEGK

T6: NHERF3_3, Q5T2W1
T6 sequence (Q5T2W1 238-333, limits assumed, looked up): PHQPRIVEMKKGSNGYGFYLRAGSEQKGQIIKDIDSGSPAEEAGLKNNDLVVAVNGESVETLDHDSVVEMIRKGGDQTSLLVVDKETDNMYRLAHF

T7: GRIP1_3, Q9Y3R0
T7 sequence (Q9Y3R0 247-346, limits assumed, looked up): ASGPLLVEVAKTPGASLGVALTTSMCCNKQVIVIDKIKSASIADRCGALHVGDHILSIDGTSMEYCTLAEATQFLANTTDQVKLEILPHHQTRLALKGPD

T8: SNTG1, Q9NSN8
T8 sequence (Q9NSN8 52-150, limits assumed, looked up): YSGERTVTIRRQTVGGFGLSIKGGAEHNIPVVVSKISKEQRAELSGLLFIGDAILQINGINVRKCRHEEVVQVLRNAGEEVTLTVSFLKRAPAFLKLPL

T9: RADIL, Q96JH8
T9 sequence (Q96JH8 971-1071, limits assumed, looked up): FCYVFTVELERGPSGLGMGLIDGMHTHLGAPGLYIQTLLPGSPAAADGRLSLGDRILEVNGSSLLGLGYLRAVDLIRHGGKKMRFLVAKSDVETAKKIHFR

T10: SNTB1, Q13884
T10 sequence (Q13884 107-205, limits assumed, looked up): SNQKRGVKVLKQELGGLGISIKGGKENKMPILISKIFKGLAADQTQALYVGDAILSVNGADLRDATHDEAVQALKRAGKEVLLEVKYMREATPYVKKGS


Legend:
Experiment in all cases: holdup assay
Parameters in all cases: key: below the threshold = too weak to quantify, mostly under pKd 3.1 to 4
Details in all cases: plain residues with an end cap or a label only (N-terminal biotin on a linker: ttds)
MAGI2_2, Q86UL8 = target: MAGI2_2, Q86UL8
Sequence of MAGI2_2, Q86UL8 (Q86UL8 410-522): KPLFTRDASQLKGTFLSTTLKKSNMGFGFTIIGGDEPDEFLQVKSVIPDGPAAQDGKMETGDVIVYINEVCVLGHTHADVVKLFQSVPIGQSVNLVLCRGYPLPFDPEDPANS

PDZD7_3, Q9H5P4 = target: T1, PDZD7_3, Q9H5P4
GRIP2_7, Q9C0E4 = target: GRIP2_7, Q9C0E4
Sequence of GRIP2_7, Q9C0E4 (Q9C0E4 934-1023): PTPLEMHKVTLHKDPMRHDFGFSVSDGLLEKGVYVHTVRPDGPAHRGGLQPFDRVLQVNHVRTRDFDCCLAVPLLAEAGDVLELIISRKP

LIN7C, Q9NUP9 = target: T2, LIN7C, Q9NUP9
MAGI1_1, Q96QZ7 = target: MAGI1_1, Q96QZ7
Sequence of MAGI1_1, Q96QZ7 (Q96QZ7 1-106): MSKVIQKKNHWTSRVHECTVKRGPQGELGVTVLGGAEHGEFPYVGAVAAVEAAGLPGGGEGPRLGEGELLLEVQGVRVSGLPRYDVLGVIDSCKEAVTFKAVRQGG

HTRA3, P83110 = target: T3, HTRA3, P83110
Inadl_8, Q8NI35 = target: Inadl_8, Q8NI35
Sequence of Inadl_8, Q8NI35 (Q8NI35 1425-1530): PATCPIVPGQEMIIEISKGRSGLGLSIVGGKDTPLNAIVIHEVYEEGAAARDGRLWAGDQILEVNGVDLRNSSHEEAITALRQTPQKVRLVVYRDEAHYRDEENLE

MAGI3_2, Q5TCQ9 = target: MAGI3_2, Q5TCQ9
Sequence of MAGI3_2, Q5TCQ9 (Q5TCQ9 398-503): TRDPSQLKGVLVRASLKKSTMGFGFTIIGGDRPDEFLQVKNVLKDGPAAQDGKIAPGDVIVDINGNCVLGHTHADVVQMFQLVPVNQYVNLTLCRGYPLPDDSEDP

MPP6, Q9NZW5 = target: T4, MPP6, Q9NZW5
MAGI2_4, Q86UL8 = target: MAGI2_4, Q86UL8
Sequence of MAGI2_4, Q86UL8 (Q86UL8 772-865): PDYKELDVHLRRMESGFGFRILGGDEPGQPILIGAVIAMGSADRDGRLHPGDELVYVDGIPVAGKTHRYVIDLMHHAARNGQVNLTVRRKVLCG

MPP7, Q5T2T1 = target: T5, MPP7, Q5T2T1
NHERF3_3, Q5T2W1 = target: T6, NHERF3_3, Q5T2W1
NOS1, P29475 = target: NOS1, P29475
Sequence of NOS1, P29475 (P29475 9-101): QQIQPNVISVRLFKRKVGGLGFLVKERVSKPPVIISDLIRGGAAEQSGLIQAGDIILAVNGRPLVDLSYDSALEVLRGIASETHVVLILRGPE

FRMPD3, Q5JV73 = target: FRMPD3, Q5JV73
Sequence of FRMPD3, Q5JV73 (Q5JV73 12-100): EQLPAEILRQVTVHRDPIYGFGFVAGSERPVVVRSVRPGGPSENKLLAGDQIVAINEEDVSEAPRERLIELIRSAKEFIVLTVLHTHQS

DLG4_1, P78352 = target: DLG4_1, P78352
Sequence of DLG4_1, P78352 (P78352 62-152): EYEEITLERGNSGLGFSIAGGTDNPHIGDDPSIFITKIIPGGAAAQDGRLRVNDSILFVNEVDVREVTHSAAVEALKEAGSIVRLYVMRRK

IL16_1, Q14005 = target: IL16_1, Q14005
Sequence of IL16_1, Q14005 (Q14005 210-306): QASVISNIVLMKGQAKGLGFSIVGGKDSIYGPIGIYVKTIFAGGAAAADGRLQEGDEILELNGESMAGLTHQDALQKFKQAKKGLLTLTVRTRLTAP

SCRIB_2, Q14160 = target: SCRIB_2, Q14160
Sequence of SCRIB_2, Q14160 (Q14160 857-960): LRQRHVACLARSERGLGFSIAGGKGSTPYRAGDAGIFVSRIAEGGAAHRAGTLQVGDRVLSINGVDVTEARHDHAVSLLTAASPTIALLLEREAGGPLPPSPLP

GRIP1_3, Q9Y3R0 = target: T7, GRIP1_3, Q9Y3R0
SNTG1, Q9NSN8 = target: T8, SNTG1, Q9NSN8
RADIL, Q96JH8 = target: T9, RADIL, Q96JH8
LDB3, O75112 = target: LDB3, O75112
Sequence of LDB3, O75112 (O75112 1-94): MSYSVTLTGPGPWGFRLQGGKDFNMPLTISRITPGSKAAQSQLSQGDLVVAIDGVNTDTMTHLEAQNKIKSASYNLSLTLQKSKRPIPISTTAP

Inadl_2, Q8NI35 = target: Inadl_2, Q8NI35
Sequence of Inadl_2, Q8NI35 (Q8NI35 238-335): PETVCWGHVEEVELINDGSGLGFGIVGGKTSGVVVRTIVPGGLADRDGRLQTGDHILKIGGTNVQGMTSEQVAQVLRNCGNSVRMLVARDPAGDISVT

LIMK2, P53671 = target: LIMK2, P53671
Sequence of LIMK2, P53671 (P53671 143-248): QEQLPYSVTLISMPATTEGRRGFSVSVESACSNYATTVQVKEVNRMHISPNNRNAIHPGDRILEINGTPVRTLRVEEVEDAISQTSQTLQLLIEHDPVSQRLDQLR

PDZRN4_1, Q6ZMN7 = target: PDZRN4_1, Q6ZMN7
Sequence of PDZRN4_1, Q6ZMN7 (Q6ZMN7 213-318): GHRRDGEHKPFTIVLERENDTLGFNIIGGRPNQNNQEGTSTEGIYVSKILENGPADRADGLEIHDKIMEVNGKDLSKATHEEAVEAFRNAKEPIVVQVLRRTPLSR

NHERF4_1, Q86UT5-2 = target: NHERF4_1, Q86UT5-2
Sequence of NHERF4_1, Q86UT5-2 (Q86UT5 other isoform, or with tags, fused parts or gaps): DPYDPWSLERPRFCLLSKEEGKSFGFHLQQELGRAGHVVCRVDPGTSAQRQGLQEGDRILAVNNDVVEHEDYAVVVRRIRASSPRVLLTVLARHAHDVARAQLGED

SNTB1, Q13884 = target: T10, SNTB1, Q13884
MAGI2_6, Q86UL8 = target: MAGI2_6, Q86UL8
Sequence of MAGI2_6, Q86UL8 (Q86UL8 1141-1229): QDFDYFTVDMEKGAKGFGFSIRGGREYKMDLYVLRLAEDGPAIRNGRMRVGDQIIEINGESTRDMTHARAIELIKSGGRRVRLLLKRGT

Binder | pKd (MAGI2_2, Q86UL8) | pKd (PDZD7_3, Q9H5P4) | pKd (GRIP2_7, Q9C0E4) | pKd (LIN7C, Q9NUP9) | pKd (MAGI1_1, Q96QZ7) | pKd (HTRA3, P83110) | pKd (Inadl_8, Q8NI35) | pKd (MAGI3_2, Q5TCQ9) | pKd (MPP6, Q9NZW5) | pKd (MAGI2_4, Q86UL8) | pKd (MPP7, Q5T2T1) | pKd (NHERF3_3, Q5T2W1) | pKd (NOS1, P29475) | pKd (FRMPD3, Q5JV73) | pKd (DLG4_1, P78352) | pKd (IL16_1, Q14005) | pKd (SCRIB_2, Q14160) | pKd (GRIP1_3, Q9Y3R0) | pKd (SNTG1, Q9NSN8) | pKd (RADIL, Q96JH8) | also measured
IYVPEAQTRL [DLGAP4, Q9Y2H0] | below the threshold | 4.31 | below the threshold | below the threshold | below the threshold | below the threshold | below the threshold | below the threshold | below the threshold | below the threshold | below the threshold | 4.14 | 3.76 | below the threshold | below the threshold | below the threshold | below the threshold | below the threshold | below the threshold | below the threshold | pKd (LDB3, O75112): below the threshold; pKd (Inadl_2, Q8NI35): below the threshold; pKd (LIMK2, P53671): below the threshold; pKd (PDZRN4_1, Q6ZMN7): 4.08; pKd (NHERF4_1, Q86UT5-2): 3.65; pKd (SNTB1, Q13884): 4.2; pKd (MAGI2_6, Q86UL8): below the threshold
SSRTRRETQL [HPV16-E6, P03126] | 4.87 | 4.68 | below the threshold | 4.04 | 3.5 | below the threshold | below the threshold | 5.31 | 3.58 | 3.89 | below the threshold | 3.72 | 4.08 | below the threshold | 4.73 | below the threshold | 4.21 | below the threshold | 3.8 | 3.65 | pKd (LDB3, O75112): below the threshold; pKd (Inadl_2, Q8NI35): below the threshold; pKd (LIMK2, P53671): below the threshold; pKd (PDZRN4_1, Q6ZMN7): 5.25; pKd (NHERF4_1, Q86UT5-2): 4.25; pKd (SNTB1, Q13884): 4.92; pKd (MAGI2_6, Q86UL8): 3.61
PKTPPTDTSV [KIR3DL3, Q8N743] | below the threshold | 3.61 | below the threshold | 3.51 | below the threshold | below the threshold | below the threshold | 3.71 | below the threshold | below the threshold | below the threshold | below the threshold | below the threshold | below the threshold | 4.04 | below the threshold | 4.08 | below the threshold | below the threshold | below the threshold | pKd (LDB3, O75112): below the threshold; pKd (Inadl_2, Q8NI35): below the threshold; pKd (LIMK2, P53671): below the threshold; pKd (PDZRN4_1, Q6ZMN7): below the threshold; pKd (NHERF4_1, Q86UT5-2): below the threshold; pKd (SNTB1, Q13884): below the threshold; pKd (MAGI2_6, Q86UL8): 3.97
TVASEKESVM [SLC1A5, Q15758] | below the threshold | 3.71 | below the threshold | 3.62 | below the threshold | below the threshold | below the threshold | below the threshold | below the threshold | below the threshold | below the threshold | below the threshold | below the threshold | below the threshold | 3.56 | below the threshold | below the threshold | below the threshold | below the threshold | below the threshold | pKd (LDB3, O75112): below the threshold; pKd (Inadl_2, Q8NI35): below the threshold; pKd (LIMK2, P53671): below the threshold; pKd (PDZRN4_1, Q6ZMN7): 3.87; pKd (NHERF4_1, Q86UT5-2): below the threshold; pKd (SNTB1, Q13884): 4.07; pKd (MAGI2_6, Q86UL8): below the threshold
